Experimental data as given in PMC4328751 (EMBO Reports, 2014).
Each block holds one binder with its values, some of them ahead of it.

Legend:
yHsp90 = yHsp90 (yeast, UniProt P02829 1-709); assay: SPR
hHsp90 = hHsp90 (human, UniProt P08238 1-724); assay: SPR
yHsp70 [1] = molecular target: T1, yHsp70 (yeast, UniProt P10591 1-642, 5-(and-6)-carboxyfluorescein coupled (in the analytical ultracentrifugation)); assay: AUC
yHsp70 [2] = molecular target: T1, yHsp70; assay: SPR

T1 sequence (P10591 whole entry): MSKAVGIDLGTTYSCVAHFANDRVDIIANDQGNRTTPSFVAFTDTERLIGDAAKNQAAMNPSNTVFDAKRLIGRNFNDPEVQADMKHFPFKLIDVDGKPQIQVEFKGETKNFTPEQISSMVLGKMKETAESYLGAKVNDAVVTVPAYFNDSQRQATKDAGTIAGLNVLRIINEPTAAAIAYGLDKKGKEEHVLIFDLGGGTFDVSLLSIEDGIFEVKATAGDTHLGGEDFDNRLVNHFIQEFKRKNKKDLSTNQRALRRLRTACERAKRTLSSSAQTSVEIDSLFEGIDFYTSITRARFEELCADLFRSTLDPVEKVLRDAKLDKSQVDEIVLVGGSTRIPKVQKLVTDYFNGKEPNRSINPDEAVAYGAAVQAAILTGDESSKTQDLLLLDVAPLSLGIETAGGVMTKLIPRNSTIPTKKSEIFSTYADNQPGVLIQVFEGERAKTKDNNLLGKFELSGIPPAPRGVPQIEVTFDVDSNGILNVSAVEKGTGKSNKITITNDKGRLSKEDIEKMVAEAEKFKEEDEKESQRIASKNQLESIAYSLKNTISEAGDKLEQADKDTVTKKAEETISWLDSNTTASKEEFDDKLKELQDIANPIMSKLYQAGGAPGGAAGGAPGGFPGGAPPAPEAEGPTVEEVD
Chain of hHsp90 (P08238 whole entry): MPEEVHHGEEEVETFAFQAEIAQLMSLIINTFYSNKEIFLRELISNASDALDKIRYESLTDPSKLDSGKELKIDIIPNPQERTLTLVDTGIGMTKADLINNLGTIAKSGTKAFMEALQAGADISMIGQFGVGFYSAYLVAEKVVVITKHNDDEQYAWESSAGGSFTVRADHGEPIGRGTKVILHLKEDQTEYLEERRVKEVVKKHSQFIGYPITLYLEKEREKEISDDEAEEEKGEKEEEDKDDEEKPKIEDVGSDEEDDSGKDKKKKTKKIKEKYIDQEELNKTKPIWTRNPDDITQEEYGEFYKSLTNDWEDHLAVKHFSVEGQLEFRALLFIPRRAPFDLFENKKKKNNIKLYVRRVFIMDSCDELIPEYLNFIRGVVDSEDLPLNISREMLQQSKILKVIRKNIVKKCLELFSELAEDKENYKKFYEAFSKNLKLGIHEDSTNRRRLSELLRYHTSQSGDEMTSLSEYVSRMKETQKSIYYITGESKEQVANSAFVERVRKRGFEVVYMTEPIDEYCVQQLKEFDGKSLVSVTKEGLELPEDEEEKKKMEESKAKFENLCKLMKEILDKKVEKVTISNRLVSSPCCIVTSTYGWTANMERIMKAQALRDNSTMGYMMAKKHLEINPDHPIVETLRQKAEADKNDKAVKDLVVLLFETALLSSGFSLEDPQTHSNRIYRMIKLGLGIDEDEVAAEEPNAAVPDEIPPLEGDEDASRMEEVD
Chain of yHsp90 (P02829 whole entry): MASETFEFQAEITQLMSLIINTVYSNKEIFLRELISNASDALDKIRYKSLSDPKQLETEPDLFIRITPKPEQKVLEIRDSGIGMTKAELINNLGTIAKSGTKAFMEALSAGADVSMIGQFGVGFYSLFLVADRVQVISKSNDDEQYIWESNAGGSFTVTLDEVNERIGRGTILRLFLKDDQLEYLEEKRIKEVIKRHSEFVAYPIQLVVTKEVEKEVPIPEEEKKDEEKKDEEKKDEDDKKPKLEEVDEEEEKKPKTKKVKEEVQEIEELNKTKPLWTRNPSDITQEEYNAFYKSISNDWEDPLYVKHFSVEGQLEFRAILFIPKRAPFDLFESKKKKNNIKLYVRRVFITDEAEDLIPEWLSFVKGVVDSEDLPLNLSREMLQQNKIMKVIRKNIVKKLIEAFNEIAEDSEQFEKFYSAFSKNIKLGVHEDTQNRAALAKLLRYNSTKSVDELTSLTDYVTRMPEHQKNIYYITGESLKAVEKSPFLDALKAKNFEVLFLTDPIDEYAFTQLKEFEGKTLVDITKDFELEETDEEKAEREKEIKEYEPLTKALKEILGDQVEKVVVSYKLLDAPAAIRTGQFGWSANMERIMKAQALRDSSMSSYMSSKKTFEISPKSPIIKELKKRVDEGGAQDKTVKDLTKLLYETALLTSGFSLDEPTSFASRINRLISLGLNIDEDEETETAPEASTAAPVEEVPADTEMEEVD

B1: Sti1 (natural protein)
chain: MSLTADEYKQQGNAAFTAKDYDKAIELFTKAIEVSETPNHVLYSNRSACYTSLKKFSDALNDANECVKINPSWSKGYNRLGAAHLGLGDLDEAESNYKKALELDASNKAAKEGLDQVHRTQQARQAQPDLGLTQLFADPNLIENLKKNPKTSEMMKDPQLVAKLIGYKQNPQAIGQDLFTDPRLMTIMATLMGVDLNMDDINQSNSMPKEPETSKSTEQKKDAEPQSDSTTSKENSSKAPQKEESKESEPMEVDEDDSKIEADKEKAEGNKFYKARQFDEAIEHYNKAWELHKDITYLNNRAAAEYEKGEYETAISTLNDAVEQGREMRADYKVISKSFARIGNAYHKLGDLKKTIEYYQKSLTEHRTADILTKLRNAEKELKKAEAEAYVNPEKAEEARLEGKEYFTKSDWPNAVKAYTEMIKRAPEDARGYSNRAAALAKLMSFPEAIADCNKAIEKDPNFVRAYIRKATAQIAVKEYASALETLDAARTKDAEVNNGSSAREIDQLYYKASQQRFQPGTSNETPEETYQRAMKDPEVAAIMQDPVMQSILQQAQQNPAALQEHMKNPEVFKKIQTLIAAGIIRTGR
fold stronger binding than to hHsp90 (yHsp90): ~2 fold
binding result (hHsp90): binds
binding result (yHsp70 [1]): binds

B4: Sti1 S258E (natural protein)
chain: MSLTADEYKQQGNAAFTAKDYDKAIELFTKAIEVSETPNHVLYSNRSACYTSLKKFSDALNDANECVKINPSWSKGYNRLGAAHLGLGDLDEAESNYKKALELDASNKAAKEGLDQVHRTQQARQAQPDLGLTQLFADPNLIENLKKNPKTSEMMKDPQLVAKLIGYKQNPQAIGQDLFTDPRLMTIMATLMGVDLNMDDINQSNSMPKEPETSKSTEQKKDAEPQSDSTTSKENSSKAPQKEESKESEPMEVDEDDEKIEADKEKAEGNKFYKARQFDEAIEHYNKAWELHKDITYLNNRAAAEYEKGEYETAISTLNDAVEQGREMRADYKVISKSFARIGNAYHKLGDLKKTIEYYQKSLTEHRTADILTKLRNAEKELKKAEAEAYVNPEKAEEARLEGKEYFTKSDWPNAVKAYTEMIKRAPEDARGYSNRAAALAKLMSFPEAIADCNKAIEKDPNFVRAYIRKATAQIAVKEYASALETLDAARTKDAEVNNGSSAREIDQLYYKASQQRFQPGTSNETPEETYQRAMKDPEVAAIMQDPVMQSILQQAQQNPAALQEHMKNPEVFKKIQTLIAAGIIRTGR
binding result (yHsp70 [2]): binds

B5: Sti1 S227E (natural protein)
chain: MSLTADEYKQQGNAAFTAKDYDKAIELFTKAIEVSETPNHVLYSNRSACYTSLKKFSDALNDANECVKINPSWSKGYNRLGAAHLGLGDLDEAESNYKKALELDASNKAAKEGLDQVHRTQQARQAQPDLGLTQLFADPNLIENLKKNPKTSEMMKDPQLVAKLIGYKQNPQAIGQDLFTDPRLMTIMATLMGVDLNMDDINQSNSMPKEPETSKSTEQKKDAEPQEDSTTSKENSSKAPQKEESKESEPMEVDEDDSKIEADKEKAEGNKFYKARQFDEAIEHYNKAWELHKDITYLNNRAAAEYEKGEYETAISTLNDAVEQGREMRADYKVISKSFARIGNAYHKLGDLKKTIEYYQKSLTEHRTADILTKLRNAEKELKKAEAEAYVNPEKAEEARLEGKEYFTKSDWPNAVKAYTEMIKRAPEDARGYSNRAAALAKLMSFPEAIADCNKAIEKDPNFVRAYIRKATAQIAVKEYASALETLDAARTKDAEVNNGSSAREIDQLYYKASQQRFQPGTSNETPEETYQRAMKDPEVAAIMQDPVMQSILQQAQQNPAALQEHMKNPEVFKKIQTLIAAGIIRTGR
binding result (yHsp70 [2]): binds

B8: Hop Y354E (natural protein)
chain: not shown
fold increase in KD against the wild type (yHsp70 [2]): ~2 fold

Further lines, results first:

binding result (yHsp70 [2]): binds
B2: Sti1 T37E (natural protein)
chain: MSLTADEYKQQGNAAFTAKDYDKAIELFTKAIEVSEEPNHVLYSNRSACYTSLKKFSDALNDANECVKINPSWSKGYNRLGAAHLGLGDLDEAESNYKKALELDASNKAAKEGLDQVHRTQQARQAQPDLGLTQLFADPNLIENLKKNPKTSEMMKDPQLVAKLIGYKQNPQAIGQDLFTDPRLMTIMATLMGVDLNMDDINQSNSMPKEPETSKSTEQKKDAEPQSDSTTSKENSSKAPQKEESKESEPMEVDEDDSKIEADKEKAEGNKFYKARQFDEAIEHYNKAWELHKDITYLNNRAAAEYEKGEYETAISTLNDAVEQGREMRADYKVISKSFARIGNAYHKLGDLKKTIEYYQKSLTEHRTADILTKLRNAEKELKKAEAEAYVNPEKAEEARLEGKEYFTKSDWPNAVKAYTEMIKRAPEDARGYSNRAAALAKLMSFPEAIADCNKAIEKDPNFVRAYIRKATAQIAVKEYASALETLDAARTKDAEVNNGSSAREIDQLYYKASQQRFQPGTSNETPEETYQRAMKDPEVAAIMQDPVMQSILQQAQQNPAALQEHMKNPEVFKKIQTLIAAGIIRTGR

binding result (yHsp70 [1]): binds
B3: Sti1 S95E (natural protein)
chain: MSLTADEYKQQGNAAFTAKDYDKAIELFTKAIEVSETPNHVLYSNRSACYTSLKKFSDALNDANECVKINPSWSKGYNRLGAAHLGLGDLDEAEENYKKALELDASNKAAKEGLDQVHRTQQARQAQPDLGLTQLFADPNLIENLKKNPKTSEMMKDPQLVAKLIGYKQNPQAIGQDLFTDPRLMTIMATLMGVDLNMDDINQSNSMPKEPETSKSTEQKKDAEPQSDSTTSKENSSKAPQKEESKESEPMEVDEDDSKIEADKEKAEGNKFYKARQFDEAIEHYNKAWELHKDITYLNNRAAAEYEKGEYETAISTLNDAVEQGREMRADYKVISKSFARIGNAYHKLGDLKKTIEYYQKSLTEHRTADILTKLRNAEKELKKAEAEAYVNPEKAEEARLEGKEYFTKSDWPNAVKAYTEMIKRAPEDARGYSNRAAALAKLMSFPEAIADCNKAIEKDPNFVRAYIRKATAQIAVKEYASALETLDAARTKDAEVNNGSSAREIDQLYYKASQQRFQPGTSNETPEETYQRAMKDPEVAAIMQDPVMQSILQQAQQNPAALQEHMKNPEVFKKIQTLIAAGIIRTGR

fold increase in KD against the wild type (yHsp70 [2]): ~2 fold
B6: Sti1 S410E (natural protein)
chain: MSLTADEYKQQGNAAFTAKDYDKAIELFTKAIEVSETPNHVLYSNRSACYTSLKKFSDALNDANECVKINPSWSKGYNRLGAAHLGLGDLDEAESNYKKALELDASNKAAKEGLDQVHRTQQARQAQPDLGLTQLFADPNLIENLKKNPKTSEMMKDPQLVAKLIGYKQNPQAIGQDLFTDPRLMTIMATLMGVDLNMDDINQSNSMPKEPETSKSTEQKKDAEPQSDSTTSKENSSKAPQKEESKESEPMEVDEDDSKIEADKEKAEGNKFYKARQFDEAIEHYNKAWELHKDITYLNNRAAAEYEKGEYETAISTLNDAVEQGREMRADYKVISKSFARIGNAYHKLGDLKKTIEYYQKSLTEHRTADILTKLRNAEKELKKAEAEAYVNPEKAEEARLEGKEYFTKEDWPNAVKAYTEMIKRAPEDARGYSNRAAALAKLMSFPEAIADCNKAIEKDPNFVRAYIRKATAQIAVKEYASALETLDAARTKDAEVNNGSSAREIDQLYYKASQQRFQPGTSNETPEETYQRAMKDPEVAAIMQDPVMQSILQQAQQNPAALQEHMKNPEVFKKIQTLIAAGIIRTGR

binding result (yHsp70 [2]): binds
B7: Hop S16E (natural protein)
chain: not shown
